Experimental data published in publication PMC3059893 (Biochemistry, 2011).
Read-outs that look alike come from different tables or passages of the source.

Assays:
Syndecan1 (Homo sapiens) = assay: fluorescence anisotropy; conditions: cited from earlier work
Model peptide [1] = assay: NMR titration; conditions: cited from earlier work
Neurexin1 (Homo sapiens) = conditions: cited from earlier work
Tiam2 peptide 3 = target: T1, Tiam2 peptide 3; assay: fluorescence anisotropy
T1 chain: YAALIHKF

Tiam1 peptide 3 = target: T2, Tiam1 peptide 3; assay: fluorescence anisotropy
T2 chain: YAAKAFRF

Model peptide [2] = target: T3, Model peptide; assay: fluorescence anisotropy
T3 chain: SSRKEYYA

Tiam1 peptide 1 = target: T4, Tiam1 peptide 1; assay: fluorescence anisotropy
T4 chain: YAAYRYRA

Tiam2 peptide 2 = target: T5, Tiam2 peptide 2; assay: fluorescence anisotropy
T5 chain: YAAGRKHF

Tiam1 peptide 2 = target: T6, Tiam1 peptide 2; assay: fluorescence anisotropy
T6 chain: YAAEKYWA

Neurexin1 = target: T7, Neurexin1 (Homo sapiens); assay: fluorescence anisotropy
T7 chain: NKDKEYYV

Syndecan1 = target: T8, Syndecan1 (Homo sapiens); assay: fluorescence anisotropy
T8 chain: TKQEEFYA

Caspr4 = target: T9, Caspr4 (Homo sapiens); assay: fluorescence anisotropy
T9 chain: ENQKEYFF

Tiam1 PDZ (from UniProt Q13009)
Kd (Syndecan1 (Homo sapiens)): 26.9 µM
Kd (Model peptide [1]): 112 µM
Kd (Neurexin1 (Homo sapiens)): 2400 µM

B1: Tiam2 PDZ (protein)
chain: NVYDVQLTKTGSVCDFGFAVTAQVDERQHLSRIFISDVLPDGLAYGEGLRKGNEIMTLNGEAVSDLDLKQMEALFSEKSVGLTLIARPPDTKA
Kd (Tiam2 peptide 3): 28.7 µM
Kd (Tiam1 peptide 3): 7.7 µM
Kd (Model peptide [2]): 24.1 µM
Kd (Tiam1 peptide 1): 22.5 µM
Kd (Tiam2 peptide 2): 9.9 µM
Kd (Tiam1 peptide 2): 10.9 µM
Kd (Neurexin1): 5 µM
Kd (Syndecan1): 200 µM
Kd (Caspr4): 3.4 µM
